From article PMC8956199, “The mismatched nucleotides encoded in vaccinia virus flip-and-flop hairpin telomeres serve an essential role in virion maturation” come the findings set out here.

Data set [1] deals with T1, I1 telomere-binding protein (UniProt P16714 1-312).
T1 sequence: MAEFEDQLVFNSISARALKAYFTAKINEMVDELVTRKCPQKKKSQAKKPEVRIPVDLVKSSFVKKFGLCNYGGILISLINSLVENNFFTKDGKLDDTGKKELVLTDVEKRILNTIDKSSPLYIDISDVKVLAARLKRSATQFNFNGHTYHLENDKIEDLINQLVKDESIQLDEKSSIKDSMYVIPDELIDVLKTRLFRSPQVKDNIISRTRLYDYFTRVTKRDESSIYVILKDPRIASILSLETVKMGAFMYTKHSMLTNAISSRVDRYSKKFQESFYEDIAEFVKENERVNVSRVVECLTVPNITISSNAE
The experiment in a line: EMSA, competition; 700 ng poly d(IC), 0-300 ng unlabeled S hairpin; reference. The following applies: protein: recombinant; tags: His6 (pET151/D-TOPO vector); label: 3' fill-in with Alexa Fluor 647-aha-dUTP (Results say Cy5-dUTP).

The target of data set [2] is T1, I1 telomere-binding protein. Briefly: EMSA, competition; 700 ng poly d(IC), 0-300 ng unlabeled S hairpin; behaved much like S. Conditions: protein: recombinant; tags: His6 (pET151/D-TOPO vector); label: 3' fill-in with Alexa Fluor 647-aha-dUTP (Results say Cy5-dUTP). For orientation: In EMSA bound probe runs differently from free probe, usually more slowly.

B1: S hairpin (VACV WR telomere, wild type) (structured_DNA)
DNA: ACATTTTTTTCTAGACACTAAATAAAATATTTAAAATATAATATTAATGTACTAAAACTTATATATTATTAATTTATCTAACTAAAGTTAGTAAATTATATATATAATTTTATAATTAATTTAATTTTACTAATTTTATTTAGTGTCTAGAAAAAAA
modifications: 5' phosphate
For the molecule B1, the binding result in data set [1] is given as “binds”.

B2: SΔ1–3 hairpin (structured_DNA)
DNA: ACATTTTTTTCTAGACACTAAATAAAATATTTAAAATATAATATTAATGTACTAAAATTATATATTAATTTACTAACTAAAGTTAGTAAATTAATATATAATTTTATAATTAATTTAATTTTACTAATTTTATTTAGTGTCTAGAAAAAAA
modifications: 5' phosphate
With B2, the binding result in data set [2] is given as “binds”.
